# According to US20240271152A1, “ENHANCING NITROGEN FIXATION WITH FUN” (Aarhus Universitet, published 2024):
# T1: FUN DNA-binding domain (bZIP) (Lotus japonicus)
# T1 chain: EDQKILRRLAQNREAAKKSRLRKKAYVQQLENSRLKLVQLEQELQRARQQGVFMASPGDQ
# B1: NRT3.1 P2 (dsDNA)
# DNA 1: GGTTTTTATTTTTGACCTCAGAGGGGATCG
# DNA 2: CGATCCCCTCTGAGGTCAAAAATAAAAACC
# B2: NAC094 P1 (dsDNA)
# DNA 1: AGGAGAGGTTTGTGAGCATCAGCAAAGTGT
# DNA 2: ACACTTTGCTGATGCTCACAAACCTCTCCT
# B3: NRT3.1 P1 (dsDNA)
# DNA 1: CGTTCATTAATATGACATCAGAATTTCTCT
# DNA 2: AGAGAAATTCTGATGTCATATTAATGAACG
# B4: AS1 P1 (dsDNA)
# DNA 1: CATGTGGGCTTTTGACGAAGGTTCAAGTAG
# DNA 2: CTACTTGAACCTTCGTCAAAAGCCCACATG
# B5: HO1 P1 (dsDNA)
# DNA 1: TGTAATAACTTGTGAGCGAAGCAGGGATCC
# DNA 2: GGATCCCTGCTTCGCTCACAAGTTATTACA
# B6: NRT2.1 P4 (dsDNA)
# DNA 1: AGATTTAAGTTGACGTATTAATGACAATGA
# DNA 2: TCATTGTCATTAATACGTCAACTTAAATCT
# B7: NRT3.1 P3 (dsDNA)
# DNA 1: AGACCTATTTTCTGACTCAATGTAGAGGGT
# DNA 2: ACCCTCTACATTGAGTCAGAAAATAGGTCT
# B8: FUN-GFP (FUN fused to green fluorescent protein) (other)
# chain: MQGFKTAQGNSHLYCHPSSFLLRGDDTSRNHTRFSDLGELQHSSNIFQQDDAVDLSSSNLPCSMYSVKSCNVVGGGSNMQYGTLNTNLGSAEIVSTGAGCLETGQQLMYHKEISMATMPMGNGHVENWADSSGMADNSQQTDDTSTDVDTDDKIQSNRDKRGTHMVVHSRDQTKSKPEDQKILRRLAQNREAAKKSRLRKKAYVQQLENSRLKLVQLEQELQRARQQGVFMASPGDQSHLAVGGANGASAFDMEYAHWVDEHQRLLTDLRSALNSQMGDNELHLLVDGVMAHYDELFRLKSLGAKADVFHMHSGLWKTPAERCFMWLGGFRSTELLKIVKNHLEPLTEPQLMGIDNLLRCAQQGEDALTQGMEALQQALVDTLSSTSLGPAGAGNVADYMGQMAIAMGKLATLESFLHSADLVKQQTLQQLQRILTTRQMARALLVRNDYISRLRALSSLWLARPRESSVMSSLPPSNIE
# notes: Expressed inside plant cells, where it is nuclear (N. benthamiana leaves, Lotus hairy roots), not on the cell surface; also called pro35S:FUN-GFP; proUbi:FUN-GFP; not shown: eGFP fused to the FUN CDS
# B9: NRT2.1 P1 (dsDNA)
# DNA 1: ACAAGTAGCTTATGACGTACGACATATAGT
# DNA 2: ACTATATGTCGTACGTCATAAGCTACTTGT
# B10: HO1 P2 (dsDNA)
# DNA 1: TCGAGCCTGCCTTGAGCTTGTCTTCTCCAT
# DNA 2: ATGGAGAAGACAAGCTCAAGGCAGGCTCGA
# Tests used:
# [1] = molecular target: T1, FUN DNA-binding domain (bZIP); assay: EMSA; same buffer, 37 C; settings: chain copies: 2; label: 5' 6-FAM
# Procedure: (§1) The purified FUN DNA binding domain (residues 178-237) was incubated with the probes at 37° C. for 60 min in EMSA buffer (25 mM Tris-HCl pH8.0, 80 mM NaCl, 35 mM KCl, 5 mM MgCl₂). After incubation, the reaction mixture was electrophoresed in 6% native polyacrylamide gel and then labelled DNA was detected with the Typhoon scanner (Fujifilm). Probes without 6-FAM-label served as competitors, while probes with mutation in the core binding sites (TGACG) served as mutants.
# (§2) The promoter region of Nrt2.1 had four putative FBSs (P1-P4), the promoter region of Ho1 had two FBSs (P1 and P2), the promoter region of NAC094 had one FBS (P1), the promoter region of Nrt3.1 had three FBSs (P1, P2, and P3), and the promoter region of AS1 had one FBS (P1), all of which are illustrated in FIG. 2C. EMSA was conducted to test whether the FUN DNA-binding domain bound probes representing the FBSs.
# [2] = molecular target: T1, FUN DNA-binding domain (bZIP); assay: EMSA; same buffer, 37 C; printed reverse strand identical to forward; settings: chain copies: 2; label: 5' 6-FAM
# Procedure: as §1, §2
# [3] = molecular target: the molecule itself; assay: confocal imaging of FUN-GFP in N. benthamiana leaves infiltrated with 500 µM ZnCl2
# [4] = molecular target: T1, FUN DNA-binding domain (bZIP); assay: EMSA; 25 mM Tris pH 8.0, 80 mM NaCl, 35 mM KCl, 5 mM MgCl2, 37 C; settings: chain copies: 2; label: 5' 6-FAM
# Procedure: as §1, §2
Binder,binding result [1],other results
B1,binds,–
B2,binds,–
B3,binds,–
B4,–,binding result [2]: binds
B5,binds,–
B6,binds,–
B7,binds,–
B8,–,binding result [3]: binds
B9,–,binding result [4]: binds
B10,binds,–
